{"source": "paper doi:10.1101/2022.11.12.516293", "binders": {"B1": {"name": "rs1320496-T (dsDNA)", "DNA 1": "CAGGAGGGGAAGTGGGATGCATGAGAAGAGGACGCGTTTC", "DNA 2": "GAAACGCGTCCTCTTCTCATGCATCCCACTTCCCCTCCTG"}, "B2": {"name": "rs1412444-T (dsDNA)", "DNA 1": "CTATTTGCCTTTAAACACTGGAAATAACACCAGTGGC", "DNA 2": "GCCACTGGTGTTATTTCCAGTGTTTAAAGGCAAATAG"}, "B3": {"name": "rs1412445-T (dsDNA)", "DNA 1": "GGTCATTAGGAGGATGTTGGTGCTATTAATAATAGAG", "DNA 2": "CTCTATTATTAATAGCACCAACATCCTCCTAATGACC"}}, "assay_in_all_cases": "EMSA", "key": {"PU.1 [1]": {"target": "T1, PU.1 (UniProt P17947 1-270)"}, "PU.1 [2]": {"target": "T1, PU.1", "remark": "listed apart in the source"}, "PU.1 [3]": {"target": "T1, PU.1", "remark": "listed apart in the source"}}, "note": "Read-outs that look alike come from different tables or passages of the source.", "data": [{"binder": "B1", "values": [{"measurement": "binding result", "setting": "PU.1 [1]", "result": "binds"}]}, {"binder": "B2", "values": [{"measurement": "binding result", "setting": "PU.1 [2]", "result": "binds"}]}, {"binder": "B3", "values": [{"measurement": "binding result", "setting": "PU.1 [3]", "result": "no binding"}]}]}
